Experimental data: PMC9681212

Target: Halo-HIF-1β (endogenously HaloTag-tagged HIF-1β, knock-in clone A21) (human (endogenous in 786-O)) (UniProt P27540)
Sequence (P27540 whole entry): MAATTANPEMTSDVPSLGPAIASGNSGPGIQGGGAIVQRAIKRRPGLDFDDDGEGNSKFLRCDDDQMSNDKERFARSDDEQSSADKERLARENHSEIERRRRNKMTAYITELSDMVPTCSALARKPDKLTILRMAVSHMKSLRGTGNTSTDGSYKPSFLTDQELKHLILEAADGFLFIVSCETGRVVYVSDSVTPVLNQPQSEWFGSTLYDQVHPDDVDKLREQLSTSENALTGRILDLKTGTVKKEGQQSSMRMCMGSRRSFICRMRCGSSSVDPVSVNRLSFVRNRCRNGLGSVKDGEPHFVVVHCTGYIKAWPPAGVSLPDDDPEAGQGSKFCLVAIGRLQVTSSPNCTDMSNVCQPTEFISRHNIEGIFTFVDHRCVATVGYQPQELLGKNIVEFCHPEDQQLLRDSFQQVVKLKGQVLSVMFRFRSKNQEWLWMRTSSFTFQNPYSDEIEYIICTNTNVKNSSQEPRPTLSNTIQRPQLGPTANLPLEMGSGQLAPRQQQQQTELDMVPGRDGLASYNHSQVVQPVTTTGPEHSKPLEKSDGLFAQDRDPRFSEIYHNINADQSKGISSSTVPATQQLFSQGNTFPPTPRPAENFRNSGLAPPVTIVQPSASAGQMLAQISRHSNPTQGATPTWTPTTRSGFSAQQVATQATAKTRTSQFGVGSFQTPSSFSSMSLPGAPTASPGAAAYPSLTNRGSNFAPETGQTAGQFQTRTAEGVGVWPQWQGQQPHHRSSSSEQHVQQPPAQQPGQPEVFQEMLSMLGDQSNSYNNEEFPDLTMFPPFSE

HIF-2α N-terminally fused with 3xFLAG tag through a short peptide linker sequence (GDGAGLIN), sequence (Q99814 whole entry, the tested form may be a part): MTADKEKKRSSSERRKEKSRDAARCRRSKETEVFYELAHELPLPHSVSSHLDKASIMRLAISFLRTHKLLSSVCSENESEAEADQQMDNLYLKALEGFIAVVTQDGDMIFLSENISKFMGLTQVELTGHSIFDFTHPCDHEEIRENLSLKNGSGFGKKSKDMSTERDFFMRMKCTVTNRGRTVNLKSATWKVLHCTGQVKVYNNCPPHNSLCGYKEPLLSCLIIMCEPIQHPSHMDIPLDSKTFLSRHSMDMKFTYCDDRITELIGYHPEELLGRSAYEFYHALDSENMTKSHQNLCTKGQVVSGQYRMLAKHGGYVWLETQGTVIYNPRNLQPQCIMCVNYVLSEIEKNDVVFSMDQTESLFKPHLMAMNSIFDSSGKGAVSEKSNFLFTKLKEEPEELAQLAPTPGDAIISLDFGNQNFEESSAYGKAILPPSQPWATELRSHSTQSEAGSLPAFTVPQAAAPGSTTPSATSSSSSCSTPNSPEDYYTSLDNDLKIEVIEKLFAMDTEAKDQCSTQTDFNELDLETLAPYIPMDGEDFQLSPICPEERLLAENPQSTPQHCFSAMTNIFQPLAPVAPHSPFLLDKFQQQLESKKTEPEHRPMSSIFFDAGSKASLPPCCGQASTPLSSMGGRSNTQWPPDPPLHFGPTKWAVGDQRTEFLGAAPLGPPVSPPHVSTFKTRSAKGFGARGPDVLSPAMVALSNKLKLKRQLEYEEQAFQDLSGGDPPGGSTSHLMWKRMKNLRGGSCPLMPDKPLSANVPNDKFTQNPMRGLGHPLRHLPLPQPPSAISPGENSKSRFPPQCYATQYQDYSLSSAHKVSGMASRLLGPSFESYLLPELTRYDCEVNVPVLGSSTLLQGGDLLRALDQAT

fSPT of endogenous Halo-HIF-1β in live 786-O KIN cells stably overexpressing HIF-2α: bound fraction of Halo-HIF-1β (diffusion coefficient <0.1 μm^2/s, presumably chromatin-bound): < 50%
Substance: HIF-2α N-terminally fused with 3xFLAG tag through a short peptide linker sequence (GDGAGLIN) (from UniProt Q99814 1-870) (natural protein)
